According to US20070224188A1:

These substances were tested against biotin-labeled soluble FcRn (assay: FcRn ELISA pH 6.0).

| FcRn pH6.0 (% of wild type) | FcRn6.0 (% of wild type) | Substance |
| --- | --- | --- |
| 320 | – | anti-CD20 IgG1 E272K (antibody) |
| 143 | – | anti-CD20 IgG1 E283S (antibody) |
| 442 | – | anti-CD20 IgG1 P343Q (antibody) |
| 85 | – | anti-CD20 IgG1 S440W (antibody) |
| 72 | – | anti-CD20 IgG1 P247R (antibody) |
| – | 102 | anti-CD20 IgG1 332E376I (antibody) |
| 83 | – | anti-CD20 IgG1 S267I (antibody) |
| 358 | – | anti-CD20 IgG1 N434G (antibody) |
| 76 | – | anti-CD20 IgG1 G236Y (antibody) |
| 143 | – | anti-CD20 IgG1 E283T (antibody) |
| – | 396 | anti-CD20 IgG1 272R311I (antibody) |
| 230 | – | anti-CD20 IgG1 E380S (antibody) |
| 56 | – | anti-CD20 IgG1 G237R (antibody) |
| 81 | – | anti-CD20 IgG1 L235Q (antibody) |
| 964 | – | anti-CD20 IgG1 M252Y (antibody) |
| 98 | – | anti-CD20 IgG1 I332Q (antibody) |
| 35 | – | anti-CD20 IgG1 P247H (antibody) |
| 131 | – | anti-CD20 IgG1 E430K (antibody) |
| 126 | – | anti-CD20 IgG1 Q438T (antibody) |
| 544 | – | anti-CD20 IgG1 T256D (antibody) |

| FcRn pH6.0 (% of wild type) | FcRn6.0 (% of wild type) | Substance |
| --- | --- | --- |
| – | 409 | anti-CD20 IgG1 257I311I (antibody) |
| 72 | – | anti-CD20 IgG1 P238H (antibody) |
| 14 | – | anti-CD20 IgG1 T256W (antibody) |
| 73 | – | anti-CD20 IgG1 E380D (antibody) |
| 0 | – | anti-CD20 IgG1 I253A (antibody) |
| 78 | – | anti-CD20 IgG1 I332D (antibody) |
| 89 | – | anti-CD20 IgG1 P343F (antibody) |
| 38 | – | anti-CD20 IgG1 Y373G (antibody) |
| 103 | – | anti-CD20 IgG1 N315L (antibody) |
| 67 | – | anti-CD20 IgG1 G341K (antibody) |
| 107 | – | anti-CD20 IgG1 P329Y (antibody) |
| 192 | – | anti-CD20 IgG1 V427N (antibody) |
| – | 531 | anti-CD20 IgG1 283R311I (antibody) |
| – | 156 | anti-CD20 IgG1 272R279L (antibody) |
| 117 | – | anti-CD20 IgG1 E283W (antibody) |
| 131 | – | anti-CD20 IgG1 E382I (antibody) |
| 103 | – | anti-CD20 IgG1 E382A (antibody) |
| – | 338 | anti-CD20 IgG1 272R286F (antibody) |
| 83 | – | anti-CD20 IgG1 H429M (antibody) |
| – | 122 | anti-CD20 IgG1 256P440Y (antibody) |

| FcRn pH6.0 (% of wild type) | FcRn6.0 (% of wild type) | Substance |
| --- | --- | --- |
| 31 | – | anti-CD20 IgG1 S254V (antibody) |
| 49 | – | anti-CD20 IgG1 K317T (antibody) |
| 69 | – | anti-CD20 IgG1 Y373V (antibody) |
| 61 | – | anti-CD20 IgG1 H429A (antibody) |
| 121 | – | anti-CD20 IgG1 A330R (antibody) |
| 101 | – | anti-CD20 IgG1 G385P (antibody) |
| 127 | – | anti-CD20 IgG1 I332L (antibody) |
| 76 | – | anti-CD20 IgG1 P238E (antibody) |
| 66 | – | anti-CD20 IgG1 Y373L (antibody) |
| – | 92 | anti-CD20 IgG1 268D332E (antibody) |
| 116 | – | anti-CD20 IgG1 D376F (antibody) |
| 85 | – | anti-CD20 IgG1 R292A (antibody) |
| 190 | – | anti-CD20 IgG1 T256P (antibody) |
| 75 | – | anti-CD20 IgG1 E318P (antibody) |
| 60 | – | anti-CD20 IgG1 R292G (antibody) |
| 6 | – | anti-CD20 IgG1 P247F (antibody) |
| 7 | – | anti-CD20 IgG1 P247Y (antibody) |
| 206 | – | anti-CD20 IgG1 E283H (antibody) |
| – | 61 | anti-CD20 IgG1 247L251F376I (antibody) |
| 131 | – | anti-CD20 IgG1 G316K (antibody) |

The next lines start with the substance.

| Substance | FcRn pH6.0 (% of wild type) | FcRn6.0 (% of wild type) |
| --- | --- | --- |
| anti-CD20 IgG1 N315P (antibody) | 14 | – |
| anti-CD20 IgG1 258D307E (antibody) | – | 237 |
| anti-CD20 IgG1 G341T (antibody) | 68 | – |
| anti-CD20 IgG1 D376R (antibody) | 103 | – |
| anti-CD20 IgG1 D376P (antibody) | 203 | – |
| anti-CD20 IgG1 E382H (antibody) | 135 | – |
| anti-CD20 IgG1 S440F (antibody) | 87 | – |
| anti-CD20 IgG1 R255N (antibody) | 27 | – |
| anti-CD20 IgG1 P247S (antibody) | 81 | – |
| anti-CD20 IgG1 T307A (antibody) | 233 | – |
| anti-CD20 IgG1 V379N (antibody) | 74 | – |
| anti-CD20 IgG1 P257V (antibody) | 447 | – |
| anti-CD20 IgG1 Q311K (antibody) | 165 | – |
| anti-CD20 IgG1 S304E (antibody) | 101 | – |
| anti-CD20 IgG1 A339D (antibody) | 80 | – |
| anti-CD20 IgG1 A339L (antibody) | 83 | – |
| anti-CD20 IgG1 376V430Q (antibody) | – | 212 |
| anti-CD20 IgG1 D270N (antibody) | 94 | – |
| anti-CD20 IgG1 Q311L (antibody) | 186 | – |
| anti-CD20 IgG1 E430G (antibody) | 131 | – |
| anti-CD20 IgG1 E430H (antibody) | 192 | – |
| anti-CD20 IgG1 L432R (antibody) | 38 | – |
| anti-CD20 IgG1 D249M (antibody) | 50 | – |

| Substance | FcRn pH6.0 (% of wild type) | FcRn6.0 (% of wild type) |
| --- | --- | --- |
| anti-CD20 IgG1 N315F (antibody) | 51 | – |
| anti-CD20 IgG1 S426L (antibody) | 117 | – |
| anti-CD20 IgG1 V279G (antibody) | 256 | – |
| anti-CD20 IgG1 Q386K (antibody) | 115 | – |
| anti-CD20 IgG1 E382K (antibody) | 153 | – |
| anti-CD20 IgG1 E269Q (antibody) | 98 | – |
| anti-CD20 IgG1 S375R (antibody) | 595 | – |
| anti-CD20 IgG1 314Y440Y (antibody) | – | 78 |
| anti-CD20 IgG1 S254E (antibody) | 6 | – |
| anti-CD20 IgG1 D376Q (antibody) | 116 | – |
| anti-CD20 IgG1 A431K (antibody) | 176 | – |
| anti-CD20 IgG1 K317P (antibody) | 145 | – |
| anti-CD20 IgG1 D265S (antibody) | 66 | – |
| anti-CD20 IgG1 E283N (antibody) | 119 | – |
| anti-CD20 IgG1 P343G (antibody) | 110 | – |
| anti-CD20 IgG1 P247G (antibody) | 75 | – |
| anti-CD20 IgG1 E283G (antibody) | 137 | – |
| anti-CD20 IgG1 D376Y (antibody) | 53 | – |
| anti-CD20 IgG1 D280A (antibody) | 55 | – |
| anti-CD20 IgG1 P343V (antibody) | 77 | – |
| anti-CD20 IgG1 E283R (antibody) | 282 | – |
| anti-CD20 IgG1 A339T (antibody) | 138 | – |
| anti-CD20 IgG1 376V430R (antibody) | – | 188 |

| Substance | FcRn pH6.0 (% of wild type) | FcRn6.0 (% of wild type) |
| --- | --- | --- |
| anti-CD20 IgG1 S254K (antibody) | 9 | – |
| anti-CD20 IgG1 V279F (antibody) | 113 | – |
| anti-CD20 IgG1 L235A (antibody) | 102 | – |
| anti-CD20 IgG1 S440N (antibody) | 82 | – |
| anti-CD20 IgG1 D249L (antibody) | 15 | – |
| anti-CD20 IgG1 258D283R (antibody) | – | 411 |
| anti-CD20 IgG1 256P314Y332E440Y (antibody) | – | 86 |
| anti-CD20 IgG1 L235G (antibody) | 85 | – |
| anti-CD20 IgG1 E272N (antibody) | 110 | – |
| anti-CD20 IgG1 K248Q (antibody) | 38 | – |
| anti-CD20 IgG1 256P434H (antibody) | – | 342 |
| anti-CD20 IgG1 Q311W (antibody) | 215 | – |
| anti-CD20 IgG1 I332G (antibody) | 94 | – |
| anti-CD20 IgG1 P343W (antibody) | 56 | – |
| anti-CD20 IgG1 A339H (antibody) | 107 | – |
| anti-CD20 IgG1 247L332E376I (antibody) | – | 74 |
| anti-CD20 IgG1 D376T (antibody) | 160 | – |
| anti-CD20 IgG1 P343S (antibody) | 101 | – |
| anti-CD20 IgG1 286F307E (antibody) | – | 431 |
| anti-CD20 IgG1 D376W (antibody) | 1 | – |
| anti-CD20 IgG1 V279S (antibody) | 242 | – |
